Literature values in patent publication US20200069786A1, “COMPOSITION AND PROCESS FOR PREPARING VACCINE” (TREOS BIO ZRT., priority 2018, published 2020).
Read-outs that look alike come from different tables or passages of the source.

System: TSA
[1] = TSA expression rate in GASTRIC cancer
[2] = TSA expression rate in HEAD and NECK
[3] = TSA expression rate in MELANOMA
[4] = TSA expression rate in PEDIATRIC
[5] = TSA expression rate in Cervical cancer
[6] = TSA expression rate in LUNG cancer
[7] = TSA expression rate in PROSTATE cancer
[8] = TSA expression rate in Esophageal
[9] = TSA expression rate in LEUKEMIAS

Molecule	TSA Expression Rate (ER) (HCC) [%]	TSA Expression Rate (ER) (LUNG) [%]	TSA Expression Rate (ER) (PANCREATIC) [%]	Expression Rate (ER) % (TSA expression rate in CRC) [%]	Expression Rate (ER) % [1] [%]	Expression Rate (ER) % [2] [%]	Expression Rate (ER) % [3] [%]	TSA Expression Rate (ER) (BRAIN) [%]	TSA Expression Rate (ER) (BREAST) [%]	TSA Expression Rate (ER) (OVARIAN) [%]	Expression Rate (ER) % [4] [%]	TSA Expression Rate (ER) (THYROID) [%]	Expression Rate (ER) % [5] [%]	Expression Rate (ER) % (TSA expression rate in Kidney) [%]	Expression Rate (ER) % [6] [%]	Expression Rate (ER) % [7] [%]	Expression Rate (ER) % (TSA expression rate in BLADDER cancer) [%]	Expression Rate (ER) % [8] [%]	Expression Rate (ER) % [9] [%]
CCDC110 (protein, UniProt Q8TBZ0 1-833, looked up) Coiled-coil domain-containing …: MSPEKQHREEDEVDSVLLSASKILNSSEGVKESGCSDTEYGCIAESENQIQPQSALKVLQQQLESFQALRMQTLQNVSMVQSEISEILNKSIIEVENPQFSSEKNLVFGTRIEKDLPTENQEENLSMEKSHHFEDSKTLHSVEEKLSGDSVNSLPQSVNVPSQIHSEDTLTLRTSTDNLSSNIIIHPSENSDILKNYNNFYRFLPTAPPNVMSQADTVILDKSKITVPFLKHGFCENLDDICHSIKQMKEELQKSHDGEVALTNELQTLQTDPDVHRNGKYDMSPIHQDKMNFIKEENLDGNLNEDIKSKRISELEALVKKLLPFRETVSKFHVHFCRKCKKLSKSEMHRGKKNEKNNKEIPITGKNITDLKFHSRVPRYTLSFLDQTKHEMKDKERQPFLVKQGSIISENEKTSKVNSVTEQCVAKIQYLQNYLKESVQIQKKVMELESENLNLKSKMKPLIFTTQSLIQKVETYEKQLKNLVEEKSTIQSKLSKTEEYSKECLKEFKKIISKYNVLQGQNKTLEEKNIQLSLEKQQMMEALDQLKSKEHKTQSDMAIVNNENNRMSIEMEAMKTNILLIQDEKEMLEKKTHQLLKEKSSLGNELKESQLEIIQLKEKERLAKTEQETLLQIIETVKDEKLNLETTLQESTAARQIMEREIENIQTYQSTAEENFLQEIKNAKSEASIYKNSLSEIGKECEMLSKMVMETKTDNQILKEELKKHSQENIKFENSISRLTEDKILLENYVRSIENERDTLEFEMRHLQREYLSLSDKICNQHNDPSKTTYISRREKFHFDNYTHEDTSSPQSRPLASDLKGYFKVKDRTLKHH	50	50	100	50	100	67	60												
XAGE-1 (protein, UniProt Q9HD64 1-81, looked up) X antigen family member 1: MESPKKKNQQLKVGILHLGSRQKKIRIQLRSQCATWKVICKSCISQTPGINLDLGSGVKVKIIPKEEHCKMPEAGEEQPQV	33	25				40	7	18	58	5	53								
SPO11 (protein, UniProt Q9Y5K1 1-396, looked up) Meiotic recombination protein …: MAFAPMGPEASFFDVLDRHRESLLAALRRGGREPPTGGSRLASSSEVLASIENIIQDIITSLARNEAPAFTIDNRSSWENIKFEDSVGLQMVSHCTTRKIKSDSPKSAQKFSLILKILSMIYKLVQSNTYATKRDIYYTDSQLFGNQTVVDNIINDISCMLKVSRRSLHILSTSKGLIAGNLRYIEEDGTKVNCTCGATAVAVPSNIQGIRNLVTDAKFVLIVEKDATFQRLLDDNFCNKLSPCIMITGKGVPDLNTRLLVKKLWDTFHVPVFTLVDADPHGIEIMCIYKYGSMSMSFEAHHLTVPAIRWLGLLPSDLKRLNVPKDSLIPLTKRDQMKLDSILRRPYVTCQPFWRKEMEIMADSKMKAEIQALTFLSSDYLSRVYLPNKLKFGGWI				0		0	6	12	0	0		0	33	0	0	0			
MAGE-A2 (protein, UniProt P43356 1-314, looked up) Melanoma-associated antigen 2: MPLEQRSQHCKPEEGLEARGEALGLVGAQAPATEEQQTASSSSTLVEVTLGEVPAADSPSPPHSPQGASSFSTTINYTLWRQSDEGSSNQEEEGPRMFPDLESEFQAAISRKMVELVHFLLLKYRAREPVTKAEMLESVLRNCQDFFPVIFSKASEYLQLVFGIEVVEVVPISHLYILVTCLGLSYDGLLGDNQVMPKTGLLIIVLAIIAIEGDCAPEEKIWEELSMLEVFEGREDSVFAHPRKLLMQDLVQENYLEYRQVPGSDPACYEFLWGPRALIETSYVKVLHHTLKIGGEPHISYPPLHERALREGEE	25	40		18	31	38	62	28		7	60	9		7		18	25	53	11
SSX-5 (protein, UniProt O60225 1-188, looked up) Protein SSX5: MNGDDAFVRRPRVGSQIPEKMQKAFDDIAKYFSEKEWEKMKASEKIIYVYMKRKYEAMTKLGFKATLPPFMRNKRVADFQGNDFDNDPNRGNQVEHPQMTFGRLQGIFPKITPEKPAEEGNDSKGVPEASGPQNNGKQLRPSGKLNTSEKVNKTSGPKRGKHAWTHRVRERKQLVIYEEISDPQEDDE	37			2	0	7	5	0	0	0		0		0	4				24
CCDC62 (protein, UniProt Q6P9F0 1-684, looked up) Coiled-coil domain-containing …: MNPPAAFLAGRQNIGSEVEISTIEKQRKELQLLIGELKDRDKELNDMVAVHQQQLLSWEEDRQKVLTLEERCSKLEGELHKRTEIIRSLTKKVKALESNQMECQTALQKTQLQLQEMAQKATHSSLLSEDLEARNETLSNTLVELSAQVGQLQAREQALTTMIKLKDKDIIEAVNHIADCSGKFKMLEHALRDAKMAETCIVKEKQDYKQKLKALKIEVNKLKEDLNEKTTENNEQREEIIRLKQEKSCLHDELLFTVEREKRKDELLNIAKSKQERTNSELHNLRQIYVKQQSDLQFLNFNVENSQELIQMYDSKMEESKALDSSRDMCLSDLENNHPKVDIKREKNQKSLFKDQKFEAMLVQQNRSDKSSCDECKEKKQQIDTVFGEKSVITLSSIFTKDLVEKHNLPWSLGGKTQIEPENKITLCKIHTKSPKCHGTGVQNEGKQPSETPTLSDEKQWHDVSVYLGLTNCPSSKHPEKLDVECQDQMERSEISCCQKNEACLGESGMCDSKCCHPSNFIIEAPGHMSDVEWMSIFKPSKMQRIVRLKSGCTCSESICGTQHDSPASELIAIQDSHSLGSSKSALREDETESSSNKKNSPTSLLIYKDAPAFNEKASIVLPSQDDFSPTSKLQRLLAESRQMVTDLELSTLLPISHENLTGSATNKSEVPEESAQKNTFVSY	0			13	7	12				0				25		22		21	
SSX-3 (protein, UniProt Q99909 1-188, looked up) Protein SSX3: MNGDDTFARRPTVGAQIPEKIQKAFDDIAKYFSKEEWEKMKVSEKIVYVYMKRKYEAMTKLGFKAILPSFMRNKRVTDFQGNDFDNDPNRGNQVQRPQMTFGRLQGIFPKIMPKKPAEEGNVSKEVPEASGPQNDGKQLCPPGKPTTSEKINMISGPKRGEHAWTHRLRERKQLVIYEEISDPEEDDE			0	0				0	0	0		0		0					4
ADAM2 (protein, UniProt Q99965 175-735, looked up) Disintegrin and …: DFAKYIEMHVIVEKQLYNHMGSDTTVVAQKVFQLIGLTNAIFVSFNITIILSSLELWIDENKIATTGEANELLHTFLRWKTSYLVLRPHDVAFLLVYREKSNYVGATFQGKMCDANYAGGVVLHPRTISLESLAVILAQLLSLSMGITYDDINKCQCSGAVCIMNPEAIHFSGVKIFSNCSFEDFAHFISKQKSQCLHNQPRLDPFFKQQAVCGNAKLEAGEECDCGTEQDCALIGETCCDIATCRFKAGSNCAEGPCCENCLFMSKERMCRPSFEECDLPEYCNGSSASCPENHYVQTGHPCGLNQWICIDGVCMSGDKQCTDTFGKEVEFGPSECYSHLNSKTDVSGNCGISDSGYTQCEADNLQCGKLICKYVGKFLLQIPRATIIYANISGHLCIAVEFASDHADSQKMWIKDGTSCGSNKVCRNQRCVSSSYLGYDCTTDKCNDRGVCNNKKHCHCSASYLPPDCSVQSDLWPGGSIDSGNFPPVAIPARLPERRYIENIYHSKPMRWPFFLFIPFFIIFCVLIAIMVKVNFQRKKWRTEDYSSDEQPESESEPKG				0			3		0	0			0	9	1	25			6
